# Results: patent US20240209061A1, “FUSION PROTEINS AND USES THEREOF” (Pfizer Inc., priority 2020, published 2024)
# Tests used:
# [1] = test system: Renca murine renal carcinoma tumor cells; experiment: Renca murine renal carcinoma model; type: in vivo, mouse; settings: for % tumor growth inhibition: Day 18; for # IFNγ-producing spots (splenic tumor-reactive T cells): spleen Day 9, average of n = 4 mice; for CD8^+ T cell infiltrates (% CD45): Renca, ~1 week after first dose, n=4
# Description: Renca murine renal carcinoma tumor cells (1 million) were subcutaneously implanted in the hind flank of female Balb/c mice. Five days after tumor implantation, PBS vehicle control or variant CD80-Fc fusion proteins were dosed intravenously at 0.3 and 1 mg/kg (on Day 0 and Day 3) or 3 mg/kg (Day 0, Day 3 and Day 6). Tumor volume was determined by caliper measurements obtained in 2 dimensions and calculated as width^2×length/2. Error bars are depicted as ±SEM.
# Pharmacodynamic (PD) modulation with variant CD80-Fc fusion proteins was assessed by measuring tumor-reactive T cells in the spleen using IFNγ ELIspot. Single-cell suspensions were generated from dissociated spleens taken at Day 9 after the first dose of CD80-Fc. Splenocytes were incubated with irradiated tumor cells overnight at 37° C., and the number of IFNγ-producing spots were measured using the IFNγ ELIspot Kit (BD Biosciences #551083).
# Cytotoxic CD8^+ T cells are responsible for killing cancer cells and the measurement of CD8^+ T cells that have infiltrated tumors commonly correlates with efficacy for immune-oncology therapies. For all in vivo studies, tumors were collected ˜1 week after the first dose and dissociated by mincing, followed by incubation in an enzymatic digestion cocktail and homogenization. The resulting cell suspension was filtered and washed, and single cells were stained with antibodies to CD45, CD8, and a viability dye to detect tumor-infiltrating lymphocytes (TILs) by flow cytometry. Data were acquired on a BD LSRFortessa flow cytometer or a Cytek Aurora spectral flow cytometer. Table 31 and FIG. 18 show the amount of tumor-infiltrating CD8+ T cells expressed as a percentage of total immune cells (CD45+). Each value is the average of n=4 mice per group. Treatment with all variant CD80-Fc fusion proteins led to increase in CD8+ TILs in various tumor models.
# [2] = Thermal stability by Differential Scanning calorimetry (DSC); type: physicochemical
# Description: There is a correlation between the thermal stability of a protein with the overall stability of the protein. Enhanced thermal stability often provides improved manufacturability and longer shelf life/stability. Thermal stability of variant CD80-Fc fusion proteins was assessed by Differential Scanning calorimetry (DSC). Variant CD80-Fc fusion proteins were analyzed using a MicroCal VP-DSC instrument. […] Tables 8-10 show the first thermal transition temperature (Tm1) of CD80-Fc fusion proteins and the enhanced thermal stability of variant CD80-Fc fusion proteins compared to CD80-WT-Fc fusion proteins.
# [3] = AC-SINS self-interaction assay; type: physicochemical
# Description: Variant CD80-Fc fusion proteins were assessed by measuring non-specific binding using a DNA- and insulin-binding ELISA (Avery et al., MAbs. 2018 February/March; 10(2): 244-255) and for self-interaction in an AC-SINS assay (affinity-capture self-interaction nanoparticle spectroscopy; Liu et al., 2014, mAbs 6:483-92). DNA- and insulin-binding scores were calculated as the signal ratio of the ELISA signal of the CD80-Fc fusion protein at 10 μg/ml to the ELISA signal in the absence of the Fc-fusion protein (buffer only). For the AC-SINS assay, proteins are captured by anti-human Fc antibodies coated on gold nanoparticles. […] The score ranges obtained from these in vitro assays correlate well with in vivo clearance using huFcRn transgenic (Tg32) mouse. Therapeutic proteins with high scores are at high risk for rapid clearance and unfavorable PK and therapeutics that score low are at low risk and favorable PK.
# [4] = test system: peripheral blood mononuclear cells (PBMC); experiment: RESTORE cytokine release assay in absence of TCR stimulation; type: cell-based, human; design: IFNγ: unit not given beside the values
# Description: The ability of variant CD80-Fc fusion proteins to promote cytokine release in the absence of TCR stimulation was assessed in the RESTORE (RESetting T cells to Original Reactivity) assay (Römer et al, Blood, 2011). Freshly isolated peripheral blood mononuclear cells (PBMC) from whole blood of several healthy donors were cultured for 48 hours at […] within RPMI1640 media supplemented with 10% autologous plasma, 10 mM HEPES, 1× GlutaMAX, 1× PenStrep, beta2-mercaptoethanol, NEAA and sodium pyruvate. Following the 48-hour incubation, PBMC were pelleted and resuspended at a final concentration of 10^6/ml with indicated soluble drug. Treatment was allowed for 48 hours then supernatant was harvested and assessed in IL-2 and IFNγ ELISA according to manufacturer's protocol (BioLegend).
# Positive controls included CD28 superagonist anti-CD28 clone TGN1412 as IgG1 and IgG4 isotypes and anti-CD3. […] Values shown are the average of 3 technical replicates. D=Donor.
# [5] = Pharmacokinetics in huFcRn transgenic mice; settings: 0.1 mg/kg IV
# Description: PK of CD80-Fc fusion proteins was also assessed in transgenic mice expressing the human neonatal Fc receptor (huFcRn) a-chain transgene under the control of its natural human promoter. Female mice were dosed intravenously with CD80-Fc fusion proteins at 0.1 mg/kg, and blood was collected at the timepoints indicated on the graph. Levels of CD80-Fc in mouse plasma were measured as described above.
substance,measurement,setting,value
CD80-D90Q-Fc: variant CD80 ECD (D90Q) fused to human IgG1 Fc,Number of tumor-free mice,[1]; 0.3 mg/kg,4/10
same,Day 18 tumor volume,"[1]; 0.3 mg/kg IV, Day 0 and 3",248.2 ± 126.1 mm^3
same,% tumor growth inhibition,[1]; 0.3 mg/kg,81.4%
same,Number of tumor-free mice,[1]; 1 mg/kg,4/10
same,Day 18 tumor volume,"[1]; 1 mg/kg IV, Day 0 and 3",157.6 ± 64.2 mm^3
same,% tumor growth inhibition,[1]; 1 mg/kg,89.6%
same,Number of tumor-free mice,[1]; 3 mg/kg,8/10
same,Day 18 tumor volume,"[1]; 3 mg/kg IV, Day 0, 3 and 6",72.0 ± 41.6 mm^3
same,% tumor growth inhibition,[1]; 3 mg/kg,97.1%
same,# IFNγ-producing spots (splenic tumor-reactive T cells),[1]; 3 mg/kg,334.75
same,CD8^+ T cell infiltrates (% CD45),[1]; 3 mg/kg,24.2 % CD45
same,DSC Tm1,[2]; PBS,59.83 ± 0.08 °C
same,AC-SINS Score,[3]; Table 6,0
same,IFNγ,"[4]; Table 20, D222, 1 μg/ml",3.3
same,IFNγ,"[4]; Table 20, D222, 10 μg/ml",4.0
same,IL-2,"[4]; Table 20, D222, 10 μg/ml",9.0
same,IFNγ,"[4]; Table 20, D281, 1 μg/ml",3.3
same,IL-2,"[4]; Table 20, D281, 1 μg/ml",2.3
same,IFNγ,"[4]; Table 20, D281, 10 μg/ml",3.3
same,IL-2,"[4]; Table 20, D281, 10 μg/ml",2.3
same,IFNγ,"[4]; Table 20, D462, 1 μg/ml",8.3
same,IL-2,"[4]; Table 20, D462, 1 μg/ml",1.7
same,IFNγ,"[4]; Table 20, D462, 10 μg/ml",10.3
same,IL-2,"[4]; Table 20, D462, 10 μg/ml",1.7
same,IFNγ,"[4]; Table 20, D547, 1 μg/ml",3.3
same,IL-2,"[4]; Table 20, D547, 1 μg/ml",9.0
same,IFNγ,"[4]; Table 20, D547, 10 μg/ml",7.7
same,IL-2,"[4]; Table 20, D547, 10 μg/ml",3.3
"CD80-K89D-D90K-T28V-T57V-Fc: non-cysteine stabilized variant CD80-Fc fusion protein (K89D, D90K, T28V, T57V)",AUC,[5],147 µg·h/mL
same,CL,[5],14 mL/day/kg
same,Vdss,[5],0.082 L/kg
same,Cmax,[5]; average of 3 animals,2300 ng/mL
same,DSC Tm1,[2]; Glu pH 4.5,65.11 ± 0.23 °C
same,DSC Tm1,[2]; His pH 5.8,68.57 ± 0.74 °C
same,DSC Tm1,[2]; PBS,63.70 ± 0.07 °C
same,DSC Tm1,[2]; Tris pH 7.5,66.94 ± 1.6 °C
same,AC-SINS Score,[3]; Table 7,−1
same,IL-2,"[4]; Table 21, D132, 1.9 μg/ml",0.0
same,IL-2,"[4]; Table 21, D132, 5.6 μg/ml",0.3
same,IL-2,"[4]; Table 21, D132, 16.7 μg/ml",0.7
same,IL-2,"[4]; Table 21, D132, 50 μg/ml",3.7
same,IL-2,"[4]; Table 21, D149, 1.9 μg/ml",0.0
same,IL-2,"[4]; Table 21, D149, 5.6 μg/ml",0.0
same,IL-2,"[4]; Table 21, D149, 16.7 μg/ml",3.7
same,IL-2,"[4]; Table 21, D149, 50 μg/ml",0.3
same,IL-2,"[4]; Table 21, D379, 1.9 μg/ml",2.3
same,IL-2,"[4]; Table 21, D379, 5.6 μg/ml",0.0
same,IL-2,"[4]; Table 21, D379, 16.7 μg/ml",0.0
same,IL-2,"[4]; Table 21, D379, 50 μg/ml",0.0
same,IL-2,"[4]; Table 21, D399, 1.9 μg/ml",0.0
same,IL-2,"[4]; Table 21, D399, 5.6 μg/ml",0.0
same,IL-2,"[4]; Table 21, D399, 16.7 μg/ml",0.0
same,IL-2,"[4]; Table 21, D399, 50 μg/ml",0.0
same,IL-2,"[4]; Table 21, D417, 1.9 μg/ml",0.0
same,IL-2,"[4]; Table 21, D417, 5.6 μg/ml",0.0
same,IL-2,"[4]; Table 21, D417, 50 μg/ml",0.0
same,IL-2,"[4]; Table 21, D518, 1.9 μg/ml",1.3
same,IL-2,"[4]; Table 21, D518, 5.6 μg/ml",0.3
same,IL-2,"[4]; Table 21, D518, 16.7 μg/ml",0.0
same,IL-2,"[4]; Table 21, D518, 50 μg/ml",3.0
same,IFNγ,"[4]; Table 22, D132, 1.9 μg/ml",0.0
same,IFNγ,"[4]; Table 22, D132, 5.6 μg/ml",0.0
same,IFNγ,"[4]; Table 22, D132, 16.7 μg/ml",41.3
same,IFNγ,"[4]; Table 22, D132, 50 μg/ml",0.0
same,IFNγ,"[4]; Table 22, D149, 1.9 μg/ml",0.0
same,IFNγ,"[4]; Table 22, D149, 5.6 μg/ml",0.0
same,IFNγ,"[4]; Table 22, D149, 16.7 μg/ml",0.0
same,IFNγ,"[4]; Table 22, D149, 50 μg/ml",12.3
same,IFNγ,"[4]; Table 22, D379, 1.9 μg/ml",2.0
same,IFNγ,"[4]; Table 22, D379, 5.6 μg/ml",0.0
same,IFNγ,"[4]; Table 22, D379, 50 μg/ml",0.0
same,IFNγ,"[4]; Table 22, D399, 1.9 μg/ml",0.0
same,IFNγ,"[4]; Table 22, D399, 5.6 μg/ml",0.0
same,IFNγ,"[4]; Table 22, D399, 16.7 μg/ml",0.0
same,IFNγ,"[4]; Table 22, D399, 50 μg/ml",13.7
same,IFNγ,"[4]; Table 22, D417, 1.9 μg/ml",0.0
same,IFNγ,"[4]; Table 22, D417, 5.6 μg/ml",94.3
same,IFNγ,"[4]; Table 22, D417, 16.7 μg/ml",0.0
same,IFNγ,"[4]; Table 22, D417, 50 μg/ml",0.0
same,IFNγ,"[4]; Table 22, D518, 1.9 μg/ml",0.0
same,IFNγ,"[4]; Table 22, D518, 5.6 μg/ml",0.0
same,IFNγ,"[4]; Table 22, D518, 16.7 μg/ml",0.0
same,IFNγ,"[4]; Table 22, D518, 50 μg/ml",0.0
"CD80-K89Q-D90Q-Fc: variant CD80 ECD (K89Q, D90Q) fused to human IgG1 Fc",Number of tumor-free mice,[1]; 0.3 mg/kg,2/10
same,Day 18 tumor volume,"[1]; 0.3 mg/kg IV, Day 0 and 3",743.2 ± 159.5 mm^3
same,% tumor growth inhibition,[1]; 0.3 mg/kg,37.4%
same,Number of tumor-free mice,[1]; 1 mg/kg,3/10
same,Day 18 tumor volume,"[1]; 1 mg/kg IV, Day 0 and 3",192.6 ± 89.3 mm^3
same,% tumor growth inhibition,[1]; 1 mg/kg,86.1%
same,Number of tumor-free mice,[1]; 3 mg/kg,8/10
same,Day 18 tumor volume,"[1]; 3 mg/kg IV, Day 0, 3 and 6",43.2 ± 21.8 mm^3
same,% tumor growth inhibition,[1]; 3 mg/kg,99.8%
same,# IFNγ-producing spots (splenic tumor-reactive T cells),[1]; 3 mg/kg,152.17
same,CD8^+ T cell infiltrates (% CD45),[1]; 3 mg/kg,36.7 % CD45
same,DSC Tm1,[2]; PBS,59.67 ± 0.10 °C
same,AC-SINS Score,[3]; Table 6,0
same,IFNγ,"[4]; Table 20, D222, 1 μg/ml",3.7
same,IL-2,"[4]; Table 20, D222, 1 μg/ml",4.3
same,IFNγ,"[4]; Table 20, D222, 10 μg/ml",4.0
same,IL-2,"[4]; Table 20, D222, 10 μg/ml",4.0
same,IFNγ,"[4]; Table 20, D281, 1 μg/ml",3.3
same,IL-2,"[4]; Table 20, D281, 1 μg/ml",2.3
same,IFNγ,"[4]; Table 20, D281, 10 μg/ml",6.7
same,IFNγ,"[4]; Table 20, D462, 1 μg/ml",7.0
same,IFNγ,"[4]; Table 20, D462, 10 μg/ml",15.0
same,IL-2,"[4]; Table 20, D462, 10 μg/ml",1.7
same,IFNγ,"[4]; Table 20, D547, 1 μg/ml",4.0
same,IL-2,"[4]; Table 20, D547, 1 μg/ml",6.3
same,IFNγ,"[4]; Table 20, D547, 10 μg/ml",8.0
same,IL-2,"[4]; Table 20, D547, 10 μg/ml",3.3
